From the supplement of paper PMC12764529
± gives the half width of the 95% confidence interval.

How the values were obtained:
[1] = folding stability dG unfold from trypsin proteolysis; higher = more stable
How it was run: (§1)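 Designed mini-proteins (under 80 residues, no cysteine) in a PA-tagged cDNA display construct were digested with trypsin and chymotrypsin. Each protease was used at 11 concentrations (threefold dilutions) plus a no-protease condition, followed by sequencing. K50 was inferred by Bayesian fitting of sequencing counts, and unfolding free energy was derived against a sequence-predicted unfolded-state K50 and a shared folded-state K50, per protease or combined. Only designs with AlphaFold2 dimer inter-PAE above 15 were kept.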

[2] = folding stability dG unfold from chymotrypsin proteolysis; higher = more stable
How it was run: as §1

[3] = folding stability dG unfold (combined trypsin and chymotrypsin); higher = more stable
How it was run: as §1

SAGGSAGGKPKTYIILVIEDPENDKYLALLFDENGKLIGTAPFKSIDELLEKLPKNVKVIVLPASAGGSAGG [r6_492_TrMRF]
folding stability dG unfold [1]: 3.6 ± 0.11 kcal/mol
folding stability dG unfold [2]: 4.47 ± 0.11 kcal/mol
folding stability dG unfold [3]: 4.24 ± 0.1 kcal/mol

SAGGSAGGKPKVVELELTTEDGSKVRVVFTEDSVYIYNEETGLLVKYNLKTGKFELKEVYPLEESAGGSAGG [r6_462_TrROS_Hall]
folding stability dG unfold [1]: 2.15 ± 0.15 kcal/mol
folding stability dG unfold [2]: 3.24 ± 0.055 kcal/mol
folding stability dG unfold [3]: 2.92 ± 0.28 kcal/mol

SAGGSAGGKPTYYVAEVTYPGNLKATVVVEDKDNLTFVIPDTGEVWDLTDLDDIKITPVSADDPSAGGSAGG [r6_222_TrMRF]
folding stability dG unfold [1]: 0.633 ± 0.033 kcal/mol
folding stability dG unfold [2]: 0.95 ± 0.14 kcal/mol
folding stability dG unfold [3]: 0.8 ± 0.073 kcal/mol

SAGGSAGGKPVTVEVDIVVKPGDTIEFPPGAKVEIVEKKEVEVNGKKYQVFKIKVTLPPGEEALSAGGSAGG [r6_454_TrROS_Hall]
folding stability dG unfold [1]: 2.31 ± 0.12 kcal/mol
folding stability dG unfold [2]: 2.854 ± 0.026 kcal/mol
folding stability dG unfold [3]: 2.72 ± 0.23 kcal/mol

SAGGSAGGKSPEDRQRENMKPVPPIEVVEIRIPIPPGMPIDQAKNIASNLMEHLGVDYVRIEITSAGGSAGG [r6_517_TrROS]
folding stability dG unfold [1]: 0.679 ± 0.038 kcal/mol
folding stability dG unfold [2]: -0.478 ± 0.21 kcal/mol
folding stability dG unfold [3]: 0.297 ± 0.24 kcal/mol

SAGGSAGGKVTVDPAKVKAILTLKDGSKLIVLEDGVLLYNPKTEKVTLVSLSDLKKLPEDAPVPSAGGSAGG [r6_889_TrMRF]
folding stability dG unfold [1]: 1.61 ± 0.042 kcal/mol
folding stability dG unfold [2]: 1.85 ± 0.026 kcal/mol
folding stability dG unfold [3]: 1.74 ± 0.054 kcal/mol

SAGGSAGGKWIHINPNSYNIKIQDPGSGKEEEIQFDSPEELIDEIKKQFPGVPVEIHPNGWFKISAGGSAGG [r6_288_TrROS]
folding stability dG unfold [1]: 0.385 ± 0.022 kcal/mol
folding stability dG unfold [2]: 0.563 ± 0.11 kcal/mol
folding stability dG unfold [3]: 0.521 ± 0.091 kcal/mol

SAGGSAGGKYQEFEYMIMFPDGGMFRVKIEYSPNPGQVKIKIEFPGGEREITIPPGAPITIMPMSAGGSAGG [r6_927_TrROS]
folding stability dG unfold [1]: 3.17 ± 0.23 kcal/mol
folding stability dG unfold [2]: 2.41 ± 0.054 kcal/mol
folding stability dG unfold [3]: 2.74 ± 0.23 kcal/mol

SAGGSAGGLEIVLPREELEELIRRGEIDEVEIERSEDDLVRARPIIRPPPPLPPEVGALLRALASAGGSAGG [r6_278_TrMRF]
folding stability dG unfold [1]: 0.891 ± 0.2 kcal/mol
folding stability dG unfold [2]: 1.91 ± 0.088 kcal/mol
folding stability dG unfold [3]: 1.56 ± 0.37 kcal/mol

SAGGSAGGLGWGSFKLPFEFWDPANGMPMRNSINIMVIVIPPPPPKVEVEEDPDNGKKKVTYDDSAGGSAGG [r6_926_TrROS]
folding stability dG unfold [1]: 2.67 ± 0.1 kcal/mol
folding stability dG unfold [2]: 3.31 ± 0.084 kcal/mol
folding stability dG unfold [3]: 2.95 ± 0.46 kcal/mol

SAGGSAGGLHPDEEFVVLFRIDVRARPVSPNAHPELKKKFPNAVIVEAKIDVLILPKEKVKELFSAGGSAGG [r6_830_TrMRF]
folding stability dG unfold [1]: 2.84 ± 0.1 kcal/mol
folding stability dG unfold [2]: 3.44 ± 0.082 kcal/mol
folding stability dG unfold [3]: 3.18 ± 0.19 kcal/mol

SAGGSAGGLPEGDIYRIRVTLPNGNTFTITFPVKSVEQAKDFAKSFLESLGLPDVKVDIEPVPVSAGGSAGG [r6_844_TrROS]
folding stability dG unfold [1]: 3.53 ± 0.065 kcal/mol
folding stability dG unfold [2]: 4.2 ± 0.044 kcal/mol
folding stability dG unfold [3]: 4 ± 0.074 kcal/mol

SAGGSAGGMEEIEIEINGKKAKIYRLPGDEDLFLIEVDGELYLVKVKKKDGKWEIVEVKKLDELSAGGSAGG [r6_915_TrROS_Hall]
folding stability dG unfold [1]: 4.17 ± 0.29 kcal/mol
folding stability dG unfold [2]: 4.25 ± 0.091 kcal/mol
folding stability dG unfold [3]: 4.13 ± 0.16 kcal/mol

SAGGSAGGMEEIVLPIPEEVAKELIASGTVTKTQTEGNRTILTKTPPSGGSTKITVVLPPSYPSSAGGSAGG [r6_654_JUSTAS]
folding stability dG unfold [1]: 1.2 ± 0.095 kcal/mol
folding stability dG unfold [2]: 1.24 ± 0.1 kcal/mol
folding stability dG unfold [3]: 1.35 ± 0.17 kcal/mol

SAGGSAGGMELISEKPAKVKYGDKEAEVWVKLVKIPNTDEVLVTLYFPGSGKPRIIPAKDVEIESAGGSAGG [r6_263_TrMRF]
folding stability dG unfold [1]: 0.655 ± 0.1 kcal/mol
folding stability dG unfold [2]: 0.836 ± 0.18 kcal/mol
folding stability dG unfold [3]: 0.836 ± 0.19 kcal/mol

SAGGSAGGMELLPDGTLVLTLKAPSLEEALKAAEALAPPGAEVEIRFDEETKEVVIVIKLPPPESAGGSAGG [r6_859_TrROS_Hall]
folding stability dG unfold [1]: 2.46 ± 0.1 kcal/mol
folding stability dG unfold [2]: 4.06 ± 0.046 kcal/mol
folding stability dG unfold [3]: 3.85 ± 0.082 kcal/mol

SAGGSAGGMEPLTRVTVELELPGGETRVVEGDDLEAVKERLKEELGLPDLVVKSVKTTPLPALESAGGSAGG [r6_406_JUSTAS]
folding stability dG unfold [1]: 0.6 ± 0.045 kcal/mol
folding stability dG unfold [2]: 0.974 ± 0.027 kcal/mol
folding stability dG unfold [3]: 0.857 ± 0.077 kcal/mol

SAGGSAGGMIEVSYDPVKNRYIATFKFPEGEVTITLPADLSPEEKAAAIKAAAEAAAKEKGIKLSAGGSAGG [r6_679_JUSTAS]
folding stability dG unfold [1]: 1.68 ± 0.025 kcal/mol
folding stability dG unfold [2]: 2 ± 0.05 kcal/mol
folding stability dG unfold [3]: 1.88 ± 0.058 kcal/mol

SAGGSAGGMIKYSEEAPDPSYRTEVEVTPVPGKVAIKTTTYRNENGVWTAEESTSVVSPEALLSSAGGSAGG [r6_778_JUSTAS]
folding stability dG unfold [1]: -0.703 ± 0.19 kcal/mol
folding stability dG unfold [2]: 0.341 ± 0.095 kcal/mol
folding stability dG unfold [3]: 0.0979 ± 0.088 kcal/mol

SAGGSAGGMILIKNEDGSLYLIEVETVTVTVKVKLPEELKELLKGIKPGDTITVTVTKVRIVKLSAGGSAGG [r6_907_TrROS_Hall]
folding stability dG unfold [1]: 3.79 ± 0.15 kcal/mol
folding stability dG unfold [2]: 4.58 ± 0.11 kcal/mol
folding stability dG unfold [3]: 4.32 ± 0.17 kcal/mol

SAGGSAGGMIYKFTYPKGEPPLLFTYDPSTGKVTVTEPKTGKPLGTVDLSLEEAVKAGARIEPVSAGGSAGG [r6_832_JUSTAS]
folding stability dG unfold [1]: 0.44 ± 0.073 kcal/mol
folding stability dG unfold [2]: 0.96 ± 0.085 kcal/mol
folding stability dG unfold [3]: 0.84 ± 0.057 kcal/mol

SAGGSAGGMKEITITNENGETLRIKVFNKETGEEKEIEFPAGMSLEDILKKLKEEEGLEVEIEPSAGGSAGG [r6_202_TrROS_Hall]
folding stability dG unfold [1]: 2.27 ± 0.14 kcal/mol
folding stability dG unfold [2]: 3.16 ± 0.071 kcal/mol
folding stability dG unfold [3]: 3.01 ± 0.16 kcal/mol

SAGGSAGGMKIEIFQNDDGIYVRIKLKPPNGPPRTMVFPFTANQIKDALKQFPNYKIEDIEVYRSAGGSAGG [r6_879_TrROS]
folding stability dG unfold [1]: 1.47 ± 0.12 kcal/mol
folding stability dG unfold [2]: 2.18 ± 0.09 kcal/mol
folding stability dG unfold [3]: 1.9 ± 0.15 kcal/mol

SAGGSAGGMKIIKYDKKTKKVLIYYDEETKEWYVRNKNGKIYKFKSVEEALKKLPVKVEIVKVPSAGGSAGG [r6_752_TrROS_Hall]
folding stability dG unfold [1]: 1.5 ± 0.035 kcal/mol
folding stability dG unfold [2]: 1.6 ± 0.14 kcal/mol
folding stability dG unfold [3]: 1.67 ± 0.089 kcal/mol

SAGGSAGGMKITIEKLDPEKGVYLLTVKPPGPGKTLVIELPVEKEEEALAFAKKLEELGYEVENSAGGSAGG [r6_796_TrMRF]
folding stability dG unfold [1]: 1.02 ± 0.02 kcal/mol
folding stability dG unfold [2]: 1.57 ± 0.12 kcal/mol
folding stability dG unfold [3]: 1.34 ± 0.13 kcal/mol

SAGGSAGGMKLTLRIEAPREEVERLAKEFEAQGIKVTVKPRPDGRVELTLEIDLPDTDKSLFDPSAGGSAGG [r6_8_TrMRF]
folding stability dG unfold [1]: 2.49 ± 0.17 kcal/mol
folding stability dG unfold [2]: 2.67 ± 0.057 kcal/mol
folding stability dG unfold [3]: 2.55 ± 0.12 kcal/mol
